This experiment deals with T1, His-tagged FHOD1-N3 (1–360) (human, UniProt Q9Y613 1-360).
T1 construct: human FHOD1, residues 1-360 (GBD and FH3 domains), from human FHOD1 cDNA in pProEX-HTb; also called FHOD1-N-WT; N-terminal region
T1 sequence (looked up): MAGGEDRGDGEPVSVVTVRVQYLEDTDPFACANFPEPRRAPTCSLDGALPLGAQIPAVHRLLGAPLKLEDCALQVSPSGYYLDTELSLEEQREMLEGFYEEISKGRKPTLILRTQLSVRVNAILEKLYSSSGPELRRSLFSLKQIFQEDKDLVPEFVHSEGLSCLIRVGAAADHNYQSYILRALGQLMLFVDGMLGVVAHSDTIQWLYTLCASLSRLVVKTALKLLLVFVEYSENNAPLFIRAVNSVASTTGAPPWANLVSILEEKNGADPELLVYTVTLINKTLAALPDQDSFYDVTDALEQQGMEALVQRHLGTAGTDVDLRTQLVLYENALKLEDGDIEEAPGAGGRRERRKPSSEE
The experiment in a line: pull-down; 20 μg GST fusion protein (GST-DAD 1.25 μM) and 20 μg His-tagged protein (His-FHOD1-N3 1.0 μM) in 500 μl PBS pH 7.4 with 0.1% Triton X-100; glutathione-Sepharose 4B, 1 h at 4 °C; three washes; eluted with 10 mM glutathione; SDS-PAGE, CBB staining, densitometry. The settings on record: both partners purified.

B1: GST-fused FHOD1–DAD (1081–1145) (domain or fragment, human, UniProt Q9Y613 1081-1145, looked up)
chain: MPTVGPSTASPEEPPGSSLPSDTSDEIMDLLVQSVTKSSPRALAARERKRSRGNRKSLRRTLKSG
notes: human FHOD1, residues 1081-1145 (diaphanous autoregulatory domain), in pGEX-6P; also called DAD-WT; GST-DAD; source: E. coli BL21, purified (glutathione-Sepharose-4B)
As for B1, the binding result was “binds”.

B2: GST-fused FHOD1–DAD (1081–1145) M1108A (domain or fragment, human, UniProt Q9Y613 1081-1145, looked up)
chain: MPTVGPSTASPEEPPGSSLPSDTSDEIADLLVQSVTKSSPRALAARERKRSRGNRKSLRRTLKSG
notes: human FHOD1, residues 1081-1145 (DAD), M1108A in the core motif; also called DAD-M1108A; source: E. coli BL21, purified (glutathione-Sepharose-4B)
With B2, the binding result is given as “binds”.

These data come from PMC12858348, “Structural basis underlying the autoinhibition of the formin FHOD1 and its phosphorylation-dependent activation” (The Journal of Biological Chemistry, 2025).
